Assay results published in PMC10777313.

Legend:
[1] = biological target: hCD32b (FcγR IIb) (human) (UniProt P31994); test: BLI
[2] = biological target: hCD16b (FcγR IIIb) (human) (UniProt O75015); test: BLI
[3] = biological target: hCD16a (FcγR IIIa) (human) (UniProt P08637); test: BLI
[4] = biological target: mCD16-2 (mouse); test: BLI; Fortebio Octet, 30°C; FcγRs loaded on NTA sensors at 5 μg/mL (2.5 nm); antibodies in solution, six 2-fold dilutions; 1× PBS, 0.1% BSA, 0.02% Tween 20; steady-state equilibrium analysis
[5] = biological target: mCD32b (mouse) (UniProt P08101); test: as above
Chain of UniProt P08101 (P08101 30-330): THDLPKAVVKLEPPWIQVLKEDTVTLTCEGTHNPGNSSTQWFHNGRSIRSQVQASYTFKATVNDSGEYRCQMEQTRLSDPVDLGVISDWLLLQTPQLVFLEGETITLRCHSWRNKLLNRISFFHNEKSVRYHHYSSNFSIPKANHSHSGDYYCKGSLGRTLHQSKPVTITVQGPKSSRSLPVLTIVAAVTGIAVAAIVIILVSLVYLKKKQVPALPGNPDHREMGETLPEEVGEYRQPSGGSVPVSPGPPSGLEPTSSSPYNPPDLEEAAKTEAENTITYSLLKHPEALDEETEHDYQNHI

Chain of UniProt P31994 (P31994 43-310): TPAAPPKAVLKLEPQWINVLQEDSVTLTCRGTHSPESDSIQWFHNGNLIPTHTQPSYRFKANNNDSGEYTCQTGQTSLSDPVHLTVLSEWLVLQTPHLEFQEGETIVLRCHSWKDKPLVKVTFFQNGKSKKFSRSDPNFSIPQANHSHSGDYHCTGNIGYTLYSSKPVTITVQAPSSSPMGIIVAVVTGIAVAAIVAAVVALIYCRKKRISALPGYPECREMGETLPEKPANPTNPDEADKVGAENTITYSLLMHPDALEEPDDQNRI
Chain of UniProt P08637 (P08637 17-208): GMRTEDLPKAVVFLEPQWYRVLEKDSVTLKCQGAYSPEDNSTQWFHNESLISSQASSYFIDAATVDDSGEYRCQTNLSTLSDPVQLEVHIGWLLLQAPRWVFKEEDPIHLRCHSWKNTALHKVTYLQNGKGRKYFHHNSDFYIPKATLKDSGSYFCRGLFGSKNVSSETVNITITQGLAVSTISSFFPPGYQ
Chain of UniProt O75015 (O75015 17-200): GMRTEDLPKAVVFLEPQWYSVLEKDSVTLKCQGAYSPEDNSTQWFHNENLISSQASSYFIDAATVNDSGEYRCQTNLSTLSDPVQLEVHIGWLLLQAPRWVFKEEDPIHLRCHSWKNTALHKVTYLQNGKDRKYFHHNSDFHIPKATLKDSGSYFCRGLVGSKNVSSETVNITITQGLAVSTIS

Substance: Wild-type huE6F6 (huE6F6-wt) (from UniProt P01857)
- Kd [1]: 1.1 µM
- Kd [2]: 2.58 µM
- Kd [3]: 0.805 µM

Substance: Wild-type huE6F6 (huE6F6-wt) (antibody)
- Kd [4]: 1.1 µM
- Kd [5]: 2.8 µM
